From article PMC5372681, “Study of Different Variants of Mo Enzyme crARC and the Interaction with Its Partners crCytb5-R and crCytb5-1” (International Journal of Molecular Sciences, 2017)

Molecular target: T1, crARC, Chlamydomonas reinhardtii mARC (mitochondrial Amidoxime Reducing Component), wild type (Chlamydomonas reinhardtii)
T1 construct: crARC, Chlamydomonas reinhardtii mARC, GenPept XP_001694549; Carries the Mo Cofactor; The mutant cDNAs were cloned in pQE80 (N-terminal six histidines); also called wild type crARC; Mo enzyme crARC; source: E. coli TP1000 (mobA), purified (Ni-NTA, PD10 desalting)
Assay: SEC; two proteins incubated together for 10 min, then loaded; 15 pmol of each; Superdex 200 10/300 GL, 50 mM phosphate buffer pH 7.2, 0.15 M NaCl, 0.75 mL/min; peak fractions checked by SDS-PAGE
Details: both partners purified

B1: crCytb5-R, Chlamydomonas reinhardtii NADH cytochrome b5 reductase (enzyme)
chain: MEEAGSEVMRSVITLLSYWQVGAGLLVVLVLIQALVFLRKKTKKPFLDPSEFQPVPLVEKTLITHNTVRLRFALPDPEQRVGLPIGQHISFKAQGEDGKDVIRPYTPVSDDDQLGAVDFVIKLYPTGKMSQVIAKMQLGDTMLMKGPKGRFTYTPNMVKHFGMLAGGTGITPMFQVLNAILKNPRDTTSVTLLYGNLTEEDILLRKELDELVAMHGNRLTVYHVLNTPPVDKEWSGGSGFISSELIRTKFPAPSSDIMTLRCGPSPMMVAMEKALTDLGYAEDKQFQF
stoichiometry N: 1 crCytb5-R per crARC
